# Measured values reported in patent US20140235701, “NGF APTAMER AND APPLICATION THEREOF” (RIBOMIC INC., published 2014).
# Numbering of substitutions follows the chain as printed.
# B1: SEQ ID NO: 82(64) (ssRNA)
# RNA: GGGUCCUGGAUAAGAGUUUCCGUCUCGUAUCCUGUUACCC
# modifications: 2'-F C5,U7,U17,U18,U19,C20,C24,U25,U33,U36; 2'-OH G8,G34; 2'-H A; 2'-OMe all other; 5' PEG40TS2; 3' idT
# B2: SEQ ID NO: 161 (ssRNA)
# RNA: B1 RNA with U33T
# modifications: 2'-F C5,U7,U17,U18,U19,C20,C24,U25,U36; dT33; 2'-OH G8,G34; 2'-H A; 2'-OMe all other; idT 5' and 3'
# B3: SEQ ID NO: 82(59) (ssRNA)
# RNA: B1 RNA
# modifications: as 82(48) without 5' idT; PS between U11 and A12
# B4: SEQ ID NO: 82(58) (ssRNA)
# RNA: B1 RNA
# modifications: as 82(48) without 5' idT; PS between G8 and G9
# B5: SEQ ID NO: 82 (ssRNA)
# RNA: B1 RNA
# modifications: 2'-F C/U, dA, 2'-OH G
# B6: SEQ ID NO: 82(1) (ssRNA)
# RNA: B1 RNA
# modifications: 2'-F all C and U; 2'-OMe G1-3,G9,G14,G16,G22,G27; 2'-OH G8,G34; 2'-H A; idT 5' and 3'
# B7: SEQ ID NO: 80 (ssRNA)
# RNA: B1 RNA with A10C, U30G, C31U
# modifications: 2'-F C/U, dA, 2'-OH G
# B8: SEQ ID NO: 82(62) (ssRNA)
# RNA: B1 RNA
# modifications: as 82(48) without 5' idT; PS between U33 and G34
# B9: SEQ ID NO: 160 (ssRNA)
# RNA: B1 RNA with U17T
# modifications: 2'-F C5,U7,U18,U19,C20,C24,U25,U33,U36; dT17; 2'-OH G8,G34; 2'-H A; 2'-OMe all other; idT 5' and 3'
# B10: SEQ ID NO: 83 (ssRNA)
# RNA: B1 RNA with G9U, U11C, A29G, C31A
# modifications: 2'-F C/U, dA, 2'-OH G
# B11: SEQ ID NO: 111(1) (ssRNA)
# RNA: B1 RNA with G9U, A10C, U30G, C31A
# modifications: 2'-OMe except 2'-F C5,U7,U17-19,C20,C24,U25,U33,U36, 2'-OH G8,G34, dA12,dA13; 3' idT
# B12: SEQ ID NO: 78 (ssRNA)
# RNA: B1 RNA with A10C, U11C, A29G, U30G, C31U
# modifications: 2'-F C/U, dA, 2'-OH G
# B13: SEQ ID NO: 82(57) (ssRNA)
# RNA: B1 RNA
# modifications: as 82(48) without 5' idT; PS between U7 and G8
# B14: SEQ ID NO: 76 (ssRNA)
# RNA: B1 RNA with G9A, A10U, U30A, C31U
# modifications: 2'-F C/U, dA, 2'-OH G
# B15: SEQ ID NO: 82(61) (ssRNA)
# RNA: B1 RNA
# modifications: as 82(48) without 5' idT; PS between A13 and G14
# B16: SEQ ID NO: 79 (ssRNA)
# RNA: B1 RNA with A10U, U30A
# modifications: 2'-F C/U, dA, 2'-OH G
# B17: SEQ ID NO: 77 (ssRNA)
# RNA: B1 RNA with G9A, A10C, U30G, C31U
# modifications: 2'-F C/U, dA, 2'-OH G
# B18: SEQ ID NO: 82(56) (ssRNA)
# RNA: B1 RNA
# modifications: 2'-F all C and U; 2'-OMe G1-3,G9,G14,G16,G22,G27; 2'-OH G8,G34; 2'-H A; 5' PEG40GS2; 3' idT
# B19: SEQ ID NO: 13 (ssRNA)
# RNA: GGGGUCCUGCUGCGUAGUUUCCGUCUCCGUGGCUGUUACCCC
# modifications: 2'-F C and U; 2'-OH G; 2'-H (deoxy) A
# B20: SEQ ID NO: 10 (ssRNA)
# RNA: GGGAGAACUUCGACCAGAAGUUGGCACAUCCUGCUGCGUAGUUUCCGUCUCCGUGGCUGUUAUGUGCG
# modifications: 2'-F C and U; 2'-OH G; 2'-H (deoxy) A
# B21: SEQ ID NO: 15 (ssRNA)
# RNA: GGGAGAACUUCGACCAGAAGUGCAAUACUUUCGCGGCAUAUGUGCAAACCUUGCCACGACUAUGUGCGCAUAC
# modifications: 2'-F C and U; 2'-OH G; 2'-H (deoxy) A
# B22: SEQ ID NO: 12 (ssRNA)
# RNA: GGGUCCUGCUGCGUAGUUUCCGUCUCCGUGGCUGUUACCC
# modifications: 2'-F C and U; 2'-OH G; 2'-H (deoxy) A
# B23: SEQ ID NO: 152 (ssRNA)
# RNA: B22 RNA with C26G
# modifications: 2'-OMe G (G8,G34 2'-OH), dA, 2'-F C/U; 5',3' idT
# B24: SEQ ID NO: 154 (ssRNA)
# RNA: B22 RNA with C26G
# modifications: 2'-OMe G (G8,G34 2'-OH), dA, 2'-F C/U; 5' idT, 3' PEG40GS2
# B25: SEQ ID NO: 68(1) (ssRNA)
# RNA: B22 RNA with C9A, C26G, G31U
# modifications: 2'-OMe G (G8,G34 2'-OH), dA, 2'-F C/U; 5',3' idT
# B26: SEQ ID NO: 94 (ssRNA)
# RNA: B22 RNA with C26G, U29G, G30A
# modifications: 2'-F C/U, dA, 2'-OH G
# B27: SEQ ID NO: 71(1) (ssRNA)
# RNA: B22 RNA with G13A, C26G, C27U
# modifications: 2'-OMe G (G8,G34 2'-OH), dA, 2'-F C/U; 5',3' idT
# B28: SEQ ID NO: 39 (ssRNA)
# RNA: B22 RNA with U14C, C26G
# modifications: 2'-F C and U; 2'-OH G; 2'-H (deoxy) A
# B29: SEQ ID NO: 155 (ssRNA)
# RNA: B22 RNA with U14C, C26A
# modifications: 2'-OMe G (G8,G34 2'-OH), dA, 2'-F C/U; 5',3' idT
# B30: SEQ ID NO: 45 (ssRNA)
# RNA: B22 RNA with C9U, G22U, C26A
# modifications: 2'-F C and U; 2'-OH G; 2'-H (deoxy) A
# B31: SEQ ID NO: 40 (ssRNA)
# RNA: B22 RNA with G22A, C26G
# modifications: 2'-F C and U; 2'-OH G; 2'-H (deoxy) A
# B32: SEQ ID NO: 95 (ssRNA)
# RNA: B22 RNA with G22A, C26U
# modifications: 2'-F C/U, dA, 2'-OH G
# B33: SEQ ID NO: 98 (ssRNA)
# RNA: B22 RNA with G11A, C26A
# modifications: 2'-F C/U, dA, 2'-OH G
# B34: SEQ ID NO: 97 (ssRNA)
# RNA: B22 RNA with G11A, C26G
# modifications: 2'-F C/U, dA, 2'-OH G
# B35: SEQ ID NO: 41 (ssRNA)
# RNA: B22 RNA with U14A, G22U, C26U
# modifications: 2'-F C and U; 2'-OH G; 2'-H (deoxy) A
# B36: SEQ ID NO: 43 (ssRNA)
# RNA: B22 RNA with U14G, G22U, C26U
# modifications: 2'-F C and U; 2'-OH G; 2'-H (deoxy) A
# B37: SEQ ID NO: 96 (ssRNA)
# RNA: B22 RNA with C26A, C27U
# modifications: 2'-F C/U, dA, 2'-OH G
# B38: SEQ ID NO: 74(1) (ssRNA)
# RNA: B22 RNA with G13A, U14G, C27G
# modifications: 2'-OMe G (G8,G34 2'-OH), dA, 2'-F C/U; 5',3' idT
# B39: SEQ ID NO: 153 (ssRNA)
# RNA: B22 RNA with C26G
# modifications: 2'-OMe G (G8,G34 2'-OH), dA, 2'-F C/U; 5' PEG40GS2, 3' idT
# B40: SEQ ID NO: 42 (ssRNA)
# RNA: B22 RNA with U14C, G22C, C26G
# modifications: 2'-F C and U; 2'-OH G; 2'-H (deoxy) A
# B41: SEQ ID NO: 84 (ssRNA)
# RNA: GGGUCCUGUCGCUAAGUUUCCGUCUUUGCGGCUGUUACCC
# modifications: 2'-F C and U; 2'-OH G; 2'-H (deoxy) A
# B42: SEQ ID NO: 93 (ssRNA)
# RNA: B22 RNA with U10C, C26U, U29C, C32U
# modifications: 2'-F C/U, dA, 2'-OH G
# B43: SEQ ID NO: 66(1) (ssRNA)
# RNA: B22 RNA with G13A, C26U, C27U
# modifications: 2'-OMe G (G8,G34 2'-OH), dA, 2'-F C/U; 5',3' idT
# B44: SEQ ID NO: 11 (ssRNA)
# RNA: GGGCACAUCCUGCUGCGUAGUUUCCGUCUCCGUGGCUGUUAUGUGC
# modifications: 2'-F C and U; 2'-OH G; 2'-H (deoxy) A
# B45: SEQ ID NO: 9 (ssRNA)
# RNA: GGGAGAACUUCGACCAGAAGUUGGCACAUCCUGCUGCGUAGUUUCCGUCUCCGUGGCUGUUAUGUGCGCAUAC
# modifications: 2'-F C and U; 2'-OH G; 2'-H (deoxy) A
# B46: SEQ ID NO: 16 (ssRNA)
# RNA: CGACCAGAAGUGCAAUACUUUCGCGGCAUAUGUGCAAACCUUGCCACGACUAUGUGCGCAUAC
# modifications: 2'-F C and U; 2'-OH G; 2'-H (deoxy) A
# B47: SEQ ID NO: 89(5) (ssRNA)
# RNA: GGGUCCUGUGGAAGAGUUUCCGUCUCGUCCACUGUUACCC
# modifications: as 89(4) plus 2'-OMe U4,A15,A31,A37; no 5' idT
# B48: SEQ ID NO: 14 (ssRNA)
# RNA: GGGAGAACUUCGACCAGAAGUGCAAUACUUUCGCGGCAUAUGUGCAAACCUUGCCACGACUAUGUGCGCAUACAUGGA
# modifications: 2'-F C and U; 2'-OH G; 2'-H (deoxy) A
# How the values were obtained:
# [1] = target: T1, NGF (nerve growth factor) (Homo sapiens, UniProt P01138 P01138:122-241); assay: cell_activity; neurite outgrowth inhibition; details: tags: R&D Systems; chain copies: 2
# Method: (§1) The cells (2500 cells per well) were cultured for one day in an RPMI-1640 medium containing 2.5% horse serum and 1.25% fetal bovine serum in a 96 well flat-bottom plate coated with collagen type IV. […] Two days later, the cytoplasm and nuclei were stained using Cellomics Neurite Outgrowth Kit (manufactured by Thermo Scientific), and neurite length per cell was measured by Cellomics ArrayScan VTI (manufactured by Thermo Scientific). With the neurite length per cell obtained by the addition of NGF alone as inhibitory activity 0%, and that of the cell obtained by NGF free culture for 2 days as inhibitory activity 100%, the inhibitory activity of the aptamer was calculated from the neurite length per cell obtained by culturing with the addition of NGF and the aptamer in mixture.
# [2] = target: T1, NGF (nerve growth factor); assay: cell_activity; neurite; TF-1 >0.3; details: tags: R&D Systems; chain copies: 2
# [3] = target: T1, NGF (nerve growth factor); assay: cell_activity; neurite; TF-1 <0.3; details: tags: R&D Systems; chain copies: 2
# [4] = target: T1, NGF (nerve growth factor); assay: SPR; more than 40N; high inhibition of receptor binding; details: tags: R&D Systems, chain copies: 2
# [5] = target: T1, NGF (nerve growth factor); assay: cell_activity; neurite; details: tags: R&D Systems; chain copies: 2
# Method: as §1
# [6] = target: T1, NGF (nerve growth factor); assay: SPR; strong neurite inhibition at 10 nM; details: tags: R&D Systems; chain copies: 2
# [7] = target: T1, NGF (nerve growth factor); assay: SPR; strong binding; details: tags: R&D Systems; chain copies: 2
# T1 sequence (P01138 122-241, one chain of several): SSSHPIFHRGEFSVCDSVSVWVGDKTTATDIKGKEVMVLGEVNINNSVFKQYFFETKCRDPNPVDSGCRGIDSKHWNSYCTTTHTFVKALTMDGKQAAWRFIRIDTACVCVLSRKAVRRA
binder,measurement,setting,value
B1,IC50,[1],0.107 nM
B2,IC50,[1],0.036 nM
B3,IC50,[2],0.034 nM
B4,IC50,[2],0.072 nM
B5,IC50,[3],< 0.3 nM
B6,IC50,[1],0.7 nM
B7,IC50,[3],< 0.3 nM
B8,IC50,[2],0.039 nM
B9,IC50,[1],0.038 nM
B10,IC50,[3],< 0.3 nM
B11,IC50,[2],0.06 nM
B12,IC50,[3],< 0.3 nM
B13,IC50,[2],0.045 nM
B14,IC50,[3],< 0.3 nM
B15,IC50,[2],0.031 nM
B16,IC50,[3],< 0.3 nM
B17,IC50,[3],< 0.3 nM
B18,IC50,[1],0.067 nM
B19,binding result,[4],binds
B20,binding result,[4],binds
B21,binding result,[4],binds
B22,binding result,[4]; stem 1 - internal loop 1 - stem 2 - loop 2 (consensus secondary structure 1),binds
B23,IC50,[5],≤ 1 nM
B24,IC50,[5],≤ 1 nM
B25,IC50,[5],≤ 1 nM
B26,binding result,[6],binds
B27,IC50,[5],≤ 1 nM
B28,binding result,[7],binds
B29,IC50,[5],≤ 1 nM
B30,binding result,[7],binds
B31,binding result,[7],binds
B32,binding result,[6],binds
B33,binding result,[6],binds
B34,binding result,[6],binds
B35,binding result,[7],binds
B36,binding result,[7],binds
B37,binding result,[6],binds
B38,IC50,[5],≤ 1 nM
B39,IC50,[5],≤ 1 nM
B40,binding result,[7],binds
B41,IC50,[1],0.793 nM
B42,binding result,[6],binds
B43,IC50,[5],≤ 1 nM
B44,binding result,[4],binds
B45,binding result,[4],binds
B46,binding result,[4],binds
B47,IC50,[2],0.079 nM
B48,binding result,[4],binds
